Results: patent publication US20050043231A1, “Therapy for growth hormone induced insulin resistance in juveniles with growth disorders” (priority 2001, published 2005)

B1: GH: recombinant bovine GH, subcutaneously 10 μgm/gm/day in two divided doses in IUGR rats (protein, UniProt P01246 27-217, looked up)
Somatotropin: AFPAMSLSGLFANAVLRAQHLHQLAADTFKEFERTYIPEGQRYSIQNTQVAFCFSETIPAPTGKNEAQQKSDLELLRISLLLIQSWLGPLQFLSRVFTNSLVFGTSDRVYEKLKDLEEGILALMRELEDGTPRAGQILKQTYDKFDTNMRSDDALLKNYGLLSCFRKDLHKTETYLRVMKCRRFGEASCAF

Legend:
[1] = Insulin sensitivity by Bergman's minimal model (frequently sampled iv glucose tolerance test with tolbutamide) in short SGA children on rhGH therapy; type: in vivo, human
Excerpt: All subjects were born SGA, had marked short stature (height approximately—3 standard deviation score (SDS)) with a height velocity<25th percentile for >1 year prior to starting rhGH therapy. SGA was defined as a birth weight<10th percentile for gestational age. Additional enrolment criteria for inclusion into the study included; no change in Tanner pubertal stage and/or testicular volumes throughout the study period, normal GH response to clonidine stimulation (defined as a GH level≧7 μgm/L), absence of both islet cell antibodies (<10 Juvenile Diabetes Foundation units) and insulin autoantibodies to exclude type 1 prediabetes. Prepubertal subjects were defined as males with a testicular volume<4 ml and girls with tanner stage 1 breast development. Subjects were excluded if; a chromosomal, intrauterine infection or syndromal cause for SGA was identified, a first degree relative had type 2 diabetes mellitus, or medical therapy was taken that was known to influence SI. Subjects were recruited from the Endocrinology Clinics at Starship Children's Hospital. Birth weight and length were converted into SDSs to correct for age and sex. Body mass index (BMI) was used as a measure of relative obesity and expressed as BMI SDS.
Insulin sensitivity (SI) was measured in 11 subjects prior to and 12 subjects during rhGH treatment. In addition five prepubertal subjects agreed to have rhGH therapy suspended for three months with reassessment of SI. Bergman's minimal model was used to measure SI, acute insulin response (AIR) and glucose effectiveness (Sg). The data was provided from a 90 min frequently sampled iv glucose tolerance test with tolbutamide, which had been modified and validated for use in children as previously described (Cutfield et al. 1990). SI is a measure of insulin mediated glucose uptake, AIR a measure of insulin secretory capacity and Sg is a measure of glucose stimulated glucose uptake independent of insulin. These three indices are characteristic measurements useful for determining glycemic states. Plasma glucose and insulin was measured from all samples and the values used for measurement of SI, AIR and Sg. Approval for the study was provided by the North Health Ethics Committee and signed, informed consent was obtained from subjects and their parents.
Plasma glucose concentration was measured using a Hitachi 911 automated random access analyser (Tokyo, Japan) with an interassay coefficient variation of 1.2% (Trinder P. Determination of blood glucose using an oxidase-peroxidase system with a non-carcinogenic chromogen. J Clin Pathol […]; 22: 158-61). Insulin was determined by Abbotts IMX microparticle enzyme immunoassay with an interassay coefficient of variation of <5%. Plasma IGF-I was measured using an established IGF binding protein blocked radioimmunoassay (Blum et al. Radioimmunoassays for insulin-like growth factors and their binding proteins. Growth Reg. 1994; 4: (Suppl.) 11-19). The IGF-I detection limit was 1.3 ng/ml with intra-assay and inter-assay coefficients of variation of 5.0% and 9.2%, respectively. Plasma IGF-II samples were intially treated with acid-ethanol cryoprecipitation to remove IGF II from binding proteins. IGF II was then measured by RIA using a highly specific polyclonal antiserum (Blum et al. A specific radioimmunoassay for insulin-like growth factor II. The interference of IGF binding proteins can be blocked by excess IGF-I. Acta Endcrinol (Copenh) 1988; 129:427-435). […]

[2] = Fasting serum IGF-I, IGF-II and leptin and BMI SDS in short SGA children on rhGH therapy; type: in vivo, human
Excerpt: All subjects were born SGA, had marked short stature (height approximately—3 standard deviation score (SDS)) with a height velocity<25th percentile for >1 year prior to starting rhGH therapy. SGA was defined as a birth weight<10th percentile for gestational age. Additional enrolment criteria for inclusion into the study included; no change in Tanner pubertal stage and/or testicular volumes throughout the study period, normal GH response to clonidine stimulation (defined as a GH level≧7 μgm/L), absence of both islet cell antibodies (<10 Juvenile Diabetes Foundation units) and insulin autoantibodies to exclude type 1 prediabetes. […] Body mass index (BMI) was used as a measure of relative obesity and expressed as BMI SDS.
Plasma glucose concentration was measured using a Hitachi 911 automated random access analyser (Tokyo, Japan) with an interassay coefficient variation of 1.2% (Trinder P. Determination of blood glucose using an oxidase-peroxidase system with a non-carcinogenic chromogen. J Clin Pathol 1995; 22: 158-61). Insulin was determined by Abbotts IMX microparticle enzyme immunoassay with an interassay coefficient of variation of <5%. Plasma IGF-I was measured using an established IGF binding protein blocked radioimmunoassay (Blum et al. Radioimmunoassays for insulin-like growth factors and their binding proteins. Growth Reg. 1994; 4: (Suppl.) 11-19). […]

[3] = Tail cuff systolic blood pressure in IUGR rats; type: in vivo, rat; conditions: day 53, tail cuff, vs no treatment group and GH treated group
Experimental: Studies of insulin resistance in vivo in rats were carried out in animals in which insulin resistance was produced by fetal undernutrition (“IUGR”) as described previously (Woodall et al. 1996). Virgin Wistar rats (age 100±5 days) were time mated using a rat estrus cycle monitor to assess the stage of estrus of the animals prior to introducing the male. After confirmation of mating, rats were housed individually in standard rat cages containing wood shavings as bedding and free access to water. All rats were kept in the same room with a constant temperature maintained at 25° C. and a 12-h light: 12-h darkness cycle. Animals received an undernutrition diet throughout pregnancy that was 30% of an ad libitum (“AD”) diet. Food intake and maternal weights were recorded daily until birth. […] After birth, pups were weighed and litter size recorded. […]
(§1) Troglitazone was added to food at approximately 100 mg/kg/day based on daily food consumption. Metformin was mixed with drinking water and the dose calculated to 500 mg/kg/day based on daily water consumption. […] Body weight and food intake of all offspring were measured daily for the first 2 weeks then every second day until study completion. […]
At day 53, systolic blood pressure measurements were recorded using tail cuff plethysmography (Blood pressure analyser IITC, Life Science, Woodland Hills, Calif., USA) as described previously (Vickers et al. 2000). […]

[4] = Growth and body composition in IUGR rats; type: in vivo, rat
Experimental: (§2) Studies of insulin resistance in vivo in rats were carried out in animals in which insulin resistance was produced by fetal undernutrition (“IUGR”) as described previously (Woodall et al. 1996). Virgin Wistar rats (age 100±5 days) were time mated using a rat estrus cycle monitor to assess the stage of estrus of the animals prior to introducing the male. After confirmation of mating, rats were housed individually in standard rat cages containing wood shavings as bedding and free access to water. All rats were kept in the same room with a constant temperature maintained at 25° C. and a 12-h light: 12-h darkness cycle. Animals received an undernutrition diet throughout pregnancy that was 30% of an ad libitum (“AD”) diet. Food intake and maternal weights were recorded daily until birth. A total of 40 male pups were recruited for the study. After birth, pups were weighed and litter size recorded. Litter size was then adjusted to eight pups to ensure standardised nutrition. Male pups from undernourished mothers were cross-fostered onto dams which received AD feeding throughout pregnancy to ensure post-natal viability. After weaning all male offspring were fed a hypercaloric diet ad libitum for the remainder of the study (total digestible energy 4846 kcal/kg, protein 31.8%, fat 30%, fat/energy ratio 55.72%, protein/energy ratio 26.25%). The fat content of the hypercaloric diet was chosen to be typical of many Western diets known to be associated with abnormalities in glucose metabolism in humans.
At 25 days of age, three days after weaning, study animals were enrolled into treatment groups for 28 days. The study groups were weight matched. […]
as §1
Statistical comparisons were carried out using the statistical package SAS (version 8) for personal computers. […] For analysis of growth and body composition data (BMI and % retroperitoneal fat), each of the four treatment groups were analysed as separate treatments and then Dunnetts test was used to compare the three active treatments with the control group. Data are expressed as mean±SEM, with p<0.05.
Body composition was examined in several different ways; body mass index (BMI), retroperitoneal fat expressed as a percentage of body weight (retroperitoneal fat %) and gonadal fat expressed as a percentage of body weight (gonadal fat %). […]

[5] = Fasting plasma insulin, glucose, IGF-I and FFA in IUGR rats treated for 28 days; type: in vivo, rat
Experimental: as §2
At 25 days of age, three days after weaning, study animals were enrolled into treatment groups for 28 days. The study groups were weight matched. The 40 study males were divided into four treatment groups, each of 10 animals; (a) no treatment (control group), (b) troglitazone and metformin, (c) recombinant bovine GH (GH) and (d) GH, troglitazone and metformin. […]
as §1
At day 53, systolic blood pressure measurements were recorded using tail cuff plethysmography (Blood pressure analyser IITC, Life Science, Woodland Hills, Calif., USA) as described previously (Vickers et al. 2000). […] Pulses in pressure were recorded during deflation at a rate of 3 mmHg/sec and the reappearance of a pulse was used to determine systolic blood pressure. […]
IGF-I in rat blood plasma was measured using an IGF binding protein (IGFBP)-blocked rat RIA described previously (Blum et al. 1994). […] Rat insulin was measured by an in-house radioimmunoassay (Vickers et al. 2000, Lewis et al. 1999). […]

| Molecule | compensatory rise in AIR (acute insulin response) ([1]; during rhGH therapy, p<0.009) [%] | recovery of SI after rhGH suspended ([1]; five prepubertal subjects, three months after rhGH therapy was suspended) | fall in SI during rhGH therapy, prepubertal children ([1]; prepubertal subjects) [%] | fall in SI during rhGH therapy, pubertal subjects ([1]; pubertal subjects) [%] | fall in SI (insulin sensitivity) during rhGH therapy ([1]; short SGA children, all subjects, 21±6 months of rhGH, p=0.018) [%] | adverse event: type 2 diabetes mellitus ([2]; one subject, 12 months after cessation of 4.1 years of rhGH therapy) | fasting serum IGF-I level ([2]; with rhGH therapy, 127±37 pretreatment, p<0.001) [μgm/l] | systolic BP [3] | nose to anus length ([4]; IUGR rats at study end, no treatment group 179±2) [mm] | gonadal fat % (percentage of body weight) ([4]; IUGR rats, across the four groups) | retroperitoneal fat % (percentage of body weight) ([4]; IUGR rats, no treatment group 0.97±0.06%) [%] | BMI ([4]; IUGR rats, no treatment group 6.8±0.2) | fasting insulin levels ([5]; 28 days of treatment, GH vs no treatment p<0.0001, GH plus sensitisers vs GH alone p=0.01) | plasma free fatty acids (FFA) ([5]; fasting) | plasma glucose ([5]; fasting, no treatment group 7.8±0.3, p<0.0001) [mmol/L] | fasting IGF-I levels ([5]; p<0.0001) |
| --- | --- | --- | --- | --- | --- | --- | --- | --- | --- | --- | --- | --- | --- | --- | --- | --- |
| rhGH: recombinant human growth hormone given to short SGA children | 123±59 | no recovery in SI | 48 | 35 | 44±10 | developed type 2 diabetes mellitus | 189±46 | – | – | – | – | – | – | – | – | – |
| B1 | – | – | – | – | – | – | – | trend of increasing systolic BP | 188±1 | increase in gonadal fat % | 0.69±0.05 | 6.9±0.1 | substantially and significantly increased | fall observed in plasma FFA | 11.9 ± 0.9 | higher |
